Assay results as given in publication doi:10.1101/2020.12.07.415471 (bioRxiv, 2020).
One block for each molecule: values may come before it.

Experiments:
[1] = target: N-terminally thioredoxin (Trx)-tagged Ct domain of CaeA2 (Actinoalloteichus cyanogriseus) (UniProt M1F4W8); test: ITC
[2] = target: T1, N-terminally thioredoxin (Trx)-tagged Ct domain of CaeA2 (Actinoalloteichus cyanogriseus, UniProt M1F4W8 2080-2484); test: ITC
T1 sequence (looked up): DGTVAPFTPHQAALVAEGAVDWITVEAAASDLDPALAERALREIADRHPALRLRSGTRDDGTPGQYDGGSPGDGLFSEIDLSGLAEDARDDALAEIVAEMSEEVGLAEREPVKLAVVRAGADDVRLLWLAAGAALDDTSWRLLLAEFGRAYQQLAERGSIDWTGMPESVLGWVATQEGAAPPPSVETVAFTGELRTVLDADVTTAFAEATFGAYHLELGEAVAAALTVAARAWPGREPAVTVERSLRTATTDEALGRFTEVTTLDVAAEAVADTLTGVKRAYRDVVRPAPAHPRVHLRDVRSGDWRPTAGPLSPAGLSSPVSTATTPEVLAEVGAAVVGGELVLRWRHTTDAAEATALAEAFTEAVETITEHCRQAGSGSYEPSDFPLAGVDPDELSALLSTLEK

Molecule: ColB1 (enzyme)
Kd [1]: 1180 nM

Kd [2]: 530 ± 120 nM
B1: MBP-fused CaeB1 variant (enzyme)
chain: MTTGNGAAPPPLTRLSPEDEAWRAHVRAFAEEHIAPLSDRMDRDATLDPGLREKLFSAGLMAVEAPARYGGRGGSLFQVVLTIEEVARVDPGVAVGVDVHNALVVATLLRQGTGDQKRRRLPLLATRQVGAFALSEENAGSDAFAGTTTAVPTSDGGYRINGRKRWTSNAGQADVFLVFARTEGHGSSAFLVDRTAEGLSIDPRTEQMGVRAAATADVVLTDVRVRRQDCVGGPGGGEGVAIGALDIGRIGIAAQMVGLAQGALDEAVAYSRTREQFGQPIGSYQGVRFTLADIATEVAAARALLYDVTRTVAAGTDIAERLRLTAMAKYFASQVAERAASRALEVLGGNGFTREYPLERFYRDVKAGKIYEGTSNMLLRSIAGSL
